Experimental data taken from article PMC3681696 (Molecular Biology of the Cell, 2013).

Target: purified muscle actin filaments (UniProt P68135 1-377)

- Kd: ~20 µM
B1: recombinant Rng2p calponin homology domain (domain or fragment)
chain: MDVNVGLSRLQSQAGAPVGTKGSNTRLAAKQRETLQAYDYLCRVDEAKKWIEECLGTDLGPTSTFEQSLRNGVVLALLVQKFQPDKLIKIFYSNELQFRHSDNINKFLDFIHGIGLPEIFHFELTDIYEGKNLPKVIYCIHALSYFLSMQDLAPPLIKSDENLSFTDEDVSIIVRRLRQSNVILPNFKAL
